For this assay, the target named is T1, XcpX (29–313), soluble form (P. aeruginosa, UniProt Q00518 29-313).
T1 construct: minor pseudopilin XcpX (GspK) of Pseudomonas aeruginosa, soluble form, residues 29-313; buffers with XcpX held 1 mM CaCl2; The XcpVWX complex was digested in situ with chymotrypsin before crystallisation; also called XcpX^(GspK); GspK; source: E. coli BL21 (DE3), purified (Ni2+-NTA, TEV digestion, Superdex 75); not shown: thioredoxin (Trx), N-terminal, cleaved
T1 sequence: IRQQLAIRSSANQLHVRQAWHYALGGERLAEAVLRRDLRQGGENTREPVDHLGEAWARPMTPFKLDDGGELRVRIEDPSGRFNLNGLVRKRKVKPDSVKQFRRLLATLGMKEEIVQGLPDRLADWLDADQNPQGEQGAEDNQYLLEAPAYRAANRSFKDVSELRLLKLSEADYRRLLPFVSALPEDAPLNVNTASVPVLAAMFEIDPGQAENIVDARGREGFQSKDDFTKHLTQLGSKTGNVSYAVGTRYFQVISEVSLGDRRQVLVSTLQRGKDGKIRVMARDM
The experiment in a line: SAXS with inline SEC; XcpUVWX complex at 6.15 mg/ml in 25 mM HEPES pH 7.0, 150 mM NaCl, 5% glycerol, 2 mM DTT. Particulars: both partners purified.

B1: XcpV (28–129), soluble form (domain or fragment)
chain: SASARSLQNASRLEDKTLAMWIADNRLNELQLEQTPPSSGRNQGELEFAGRRWEWRTQVDSTAEQDMRRVIVWVAAKPLGRERGSIEERAAARLVGFLGSQP
notes: minor pseudopilin XcpV (GspI) of Pseudomonas aeruginosa, soluble form, residues 28-129; The XcpVWX complex was digested in situ with chymotrypsin before crystallisation; the chains in PDB 5VTM may be shorter; also called XcpV^(GspI); GspI; source: E. coli BL21 (DE3), purified (Ni2+-NTA, TEV digestion, Superdex 75); not shown: thioredoxin (Trx), N-terminal, cleaved
Regarding B1, the binding result was “binds”.

The record behind these values is publication PMC6211770, “Structure-guided disruption of the pseudopilus tip complex inhibits the Type II secretion in Pseudomonas aeruginosa” (PLoS Pathogens, 2018).
